Source: patent US12723078 (University of Texas, dated 2026)

Columns and labels:
recombinant LILRB1 [1] = molecular target: T1, recombinant LILRB1 (human, UniProt Q8NHL6 24-461); experiment: ELISA, coated recombinant LILRB1, antibody titration;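 further: serially diluted anti-LILRB1 antibodies incubated 60 min at 37 °C on plates coated with 50 ng/well recombinant protein, TMB colorimetric development read as absorbance at 450 nm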
T1 construct: LILRB1-Fc proteins were also made; also called LILRB1 recombinant proteins
T1 sequence (Q8NHL6 24-461 limits assumed): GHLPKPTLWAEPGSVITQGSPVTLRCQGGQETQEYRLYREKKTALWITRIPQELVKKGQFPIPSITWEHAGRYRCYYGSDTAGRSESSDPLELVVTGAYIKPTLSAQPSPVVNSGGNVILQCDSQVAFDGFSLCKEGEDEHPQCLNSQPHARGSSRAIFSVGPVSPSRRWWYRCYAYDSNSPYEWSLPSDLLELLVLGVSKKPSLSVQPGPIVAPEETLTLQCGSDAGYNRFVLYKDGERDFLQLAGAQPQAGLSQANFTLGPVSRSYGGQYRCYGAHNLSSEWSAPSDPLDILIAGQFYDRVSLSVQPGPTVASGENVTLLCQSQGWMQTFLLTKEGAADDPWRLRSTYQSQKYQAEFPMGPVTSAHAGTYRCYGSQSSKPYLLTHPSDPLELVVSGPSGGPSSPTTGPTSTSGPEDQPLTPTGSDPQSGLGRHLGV
Description: (§1) ELISA. LILRB1 recombinant proteins (50 ng/well, 100 μL per well) were coated on Corning 96-well ELISA plates at 37° C. for 4 hrs. Plates were blocked for 2 hrs at 37° C. with 5% non-fat milk. After washing with PBST, 100 μL of serial diluted anti-LILRB1 antibodies were added and incubated for 60 min at 37° C. […] Plates were washed again with PBST for another 5 times, then the immunoreactions were developed with TMB substrates (Sigma, Cat #T0440) and stopped by the addition of 2 M H_2SO_4 before the plate was read at 450 nm.

recombinant LILRB1 [2] = molecular target: T1, recombinant LILRB1; experiment: BLI (Octet RED96), antibody on biosensor, recombinant LILRB1 in solution;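 further: Background-subtracted sensorgrams fitted with a one-to-one binding model, KD taken as koff over kon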
Description: (§2) Following a short baseline in kinetics buffer for 20 s, the loaded biosensors were exposed to solutions of recombinant LILRB1 in a range of concentrations (0-500 nM). After background was subtracted, data was fit to a 1:1 binding model to extract an association rate ($kon$) and dissociation rate ($koff$). The KD was calculated using the ratio $koff/kon$. […] All experiments were performed with shaking at 1,000 rpm. All raw data was processed using ForteBio Octet Data Analysis Software 9.0.

LILRA1 = molecular target: T2, LILRA1 (human, UniProt O75019); experiment: Octet RED96, cross-reactivity table
T2 construct: not the cell-surface form of MOLECULES; also called LILRA1 protein of the ELISA and Octet specificity tests
T2 sequence (O75019 17-461 limits assumed): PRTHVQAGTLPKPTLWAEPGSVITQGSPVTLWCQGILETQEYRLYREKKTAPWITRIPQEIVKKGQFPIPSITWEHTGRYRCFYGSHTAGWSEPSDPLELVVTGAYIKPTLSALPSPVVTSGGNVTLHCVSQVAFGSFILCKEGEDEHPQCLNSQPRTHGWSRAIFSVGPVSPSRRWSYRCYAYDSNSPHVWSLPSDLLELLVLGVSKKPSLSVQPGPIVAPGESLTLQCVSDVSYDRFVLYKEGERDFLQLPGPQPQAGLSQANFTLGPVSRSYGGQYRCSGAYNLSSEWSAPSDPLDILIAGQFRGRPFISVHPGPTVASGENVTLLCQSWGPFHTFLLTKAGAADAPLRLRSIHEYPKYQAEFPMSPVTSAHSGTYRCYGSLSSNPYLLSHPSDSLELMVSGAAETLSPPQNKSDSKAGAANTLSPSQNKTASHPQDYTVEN

[3] = molecular target: T3, recombinant human LILRB1 protein (human, UniProt Q8NHL6 24-461); experiment: Octet RED96, LILRB1 at 100, 33.3, 11.1 and 3.7 nM
T3 construct: ELISA and Octet methods say only 'recombinant LILRB1'; also called recombinant LILRB1; LILRB1 recombinant proteins
T3 sequence (Q8NHL6 24-461 limits assumed): as the sequence (Q8NHL6 24-461 limits assumed) above
Description: as §2

[4] = molecular target: T3, recombinant human LILRB1 protein; experiment: ELISA
Description: as §1

[5] = molecular target: T3, recombinant human LILRB1 protein; experiment: ELISA; remark: listed apart in the source
Description: as §1

B1: B1-#93 (antibody, V domains shown)
VH: EQSVEESGGDLVKPGTSLTLTCTASGFSFSGNTICWVRQAPGKRPEWIACIYPSSTSITTYATWAKGRFTVSKTSSTTVTLQMTSLTAADTATYFCARRYAAFLTYGSGAFDPWGPGTLVTISS
VL: ELDLTQTPASVSAAVGGTVTINCQASESIGSALAWYQQKPGQPPKLLIYSASALASGVPSRFKGSGSGTEYTLTISDLECADAATYYCQSYYGSGTTALDTFGGGTEVEIK
notes: recombinant rabbit IgG
EC50 (recombinant LILRB1 [1]): 0.482 µg/mL
Kd (recombinant LILRB1 [2]): 8.54 nM
koff (recombinant LILRB1 [2]): 0.000338 s⁻¹
kon (recombinant LILRB1 [2]): 39600 M⁻¹ s⁻¹

B2: B1-#198 (antibody, V domains shown)
VH: QSLEESGGGLVKPEGSLTLTCTASGFDLSNNYYICWVRQAPGKGLELIACVDSDLTDSADYASWAKGRFTISKTSSTTVTLQMTSLTAADTATYFCAGSGSGYYYYYGMDLWGPGTLVTISS
VL: ELDMTQTPASVSEPVGGTVTIKCQASQSIGSYLAWYQQKPGQPPKLLAFYASTLKSGVPPRFKGSGSGTEFTLTISDLECADAATYYCQSNRLSSSDVNAFGGGTEVEIK
notes: recombinant rabbit IgG
EC50 (recombinant LILRB1 [1]): 0.00942 µg/mL
Kd (recombinant LILRB1 [2]): 0.0272 nM
koff (recombinant LILRB1 [2]): 5.92e-06 s⁻¹
kon (recombinant LILRB1 [2]): 218000 M⁻¹ s⁻¹

B3: B1-#5 (antibody, V domains shown)
VH: EQSLEESGGDLVKPEGSLTLTCTASELSFSSAYYMCWVRQAPGKGLEWIGCIYSGDGDTYYANWAKGRFTISKTSSTTVTLQMTSLTDADTATYFCARALDSHYSSFDLWGPGTLVTISS
VL: ELDMTQTPSSVSAAVGDTVTIKCQASQSIYRYLAWYQQKPGQRPSLLIYYGSDLASGVPSRFSGSGSGTEFTLTISDLECADAASYYCQTTYDDYHNGWAFGGGTNVEIN
notes: recombinant rabbit IgG
EC50 (recombinant LILRB1 [1]): 0.00602 µg/mL
binding result (LILRA1): binds

B4: B1-#209 (antibody, V domains shown)
VH: SQSVEESGGDLVKPGGTLTLTCTASRIDLNNYYYISWVRQAPGKGLEWIGVVATDSSVTWYASWAKGQFTISKTSSTTVTLQMTSLTAADTATYFCARGSGAATNGVWWVMGDGMDLWGPGTLVTVSS
VL: ELVMTQTPASVSEPVGGTVTIKCQASQSISSYLSWYQQKPGQPPKRLIYKASTLASGVPSRFKGSGSGTEFTLTISGVQCADAATYYCQNNYHSGSSNGGGFAFGGGTEVEIK
notes: recombinant rabbit IgG
EC50 (recombinant LILRB1 [1]): 0.011 µg/mL
Kd (recombinant LILRB1 [2]): 3.03 nM
koff (recombinant LILRB1 [2]): 0.000209 s⁻¹
kon (recombinant LILRB1 [2]): 68900 M⁻¹ s⁻¹

B5: B1-#190 (antibody, V domains shown)
VH: QEQLKESGGDLVKPEGSLTLTCTASGFSFSSDYWVCWVRQAPGKGPEWIGCIYTGDDDTYYASWAKGRFTISKTSSTTVTLEVTSLTAADTATYFCARGLTIGTAELYFWGPGTVVTVSS
VL: ELVLTQTPSPVSAAVGGTVTINCQASQSISNELSWYQQKPGQPPKLLIYLASTLDSGVPSRFKGSGSGTQFTLTISDLECADAATYYCQSHYYGGSSDYGWAFGGGTEVVVK
notes: recombinant rabbit IgG
EC50 (recombinant LILRB1 [1]): 0.00678 µg/mL
binding result (LILRA1): binds

B6: B1-#22 (antibody, V domains shown)
VH: EQSLEESGGGLVKPGASLTLTCKASGFDFSSNDYMCWVRQAPGKGLEWIGCIYGGDGHTYYATWAKGRFTISKASSTTVTLQMTSLTAADTASYFCARGYSYGDTGYADAILTLDLWGPGTLVTVSS
VL: ELDLTQTPASVEAAVGGTVTIKCQASQTIGSYLSWYQQKPGQRPKLLIYEASKLASGVPSWFKGSGSGTEFTLTISDLECADAATYYCQSNYYRAGGNYGGAFGGGTEVEIK
notes: recombinant rabbit IgG
EC50 (recombinant LILRB1 [1]): 0.0292 µg/mL
Kd (recombinant LILRB1 [2]): 0.611 nM
koff (recombinant LILRB1 [2]): 8.62e-05 s⁻¹
kon (recombinant LILRB1 [2]): 141000 M⁻¹ s⁻¹

B7: B1-#3 (antibody, V domains shown)
VH: QSLEESEGDLVKPEGSLTLTCKASGFDFSSDAMCWVRQAPGKGLEWIGCIYNGDEITDHASWAKGRFTISKTSPTTVTLQMTSLTVADTATYFCARAVYSDGGAGYPYMYGMDLWGPGTLVTVSS
VL: ELDMTQTPASVEAAVGGTVTIKCQASQNIYSYLVWYQQKPGQPPKLLISKASTLASGVSSRFKGSGSGTEFTLTINDLECADAATYYCQTNYFSSTSHFGVFTFGGGTELEIK
notes: IgG; also called antagonistic B1-3
binding result (LILRA1): binds

B8: B1-#204 (antibody, V domains shown)
VH: QSVKESGGGLVKPGGTLTLTCTASGFSFSSSYCMCWVRQAPGKGLELIACIYTDSSGATYYASWAKGRFTISKSSSTTITLQMTSLTAADTATYFCARGWDYEDPGYTDTTYFSLWGPGTLVTVSS
VL: ELDMTQTPSSVEAAVGGTVTIKCQASQTIYTNLAWYQQKPGQPPNLLIYAASTLASGVSSRFKGSGSGTEFTLTISDLECADAATYYCQSYYGSSTTGNGFGGGTEVEIN
notes: recombinant rabbit IgG
EC50 (recombinant LILRB1 [1]): 0.00737 µg/mL
binding result (LILRA1): no binding (tested: not given)

B9: B1-176-N297A (antibody, V domains shown)
VH: QSLEESEGGLVKPGGTLTLTCTASGFSFSSSYCMCWVRQAPGKGLELIACIYTDSSGATYYASWAKGRFTISKSSSTTITLQMTSLTAADTATYFCARGWDYEDPGYTDTTYFSLWGPGTLVTVSS
VL: ELDLTQTPSSVEAAVGGTVTIKCQASQTIYTNLAWYQQKPGQPPNLLIYAASTLASGVSSRFKGSGSGTEFTLTISDLECADAATYYCQSYYGSSTTGNGFGGGTEVEIK
Kd [3]: 0.17 nM

B10: B1-#27 (antibody, V domains shown)
VH: EQSVKESGGGLVQPEGSLTLTCTVSGFSFSGSYWICWVRQAPGKGLEWIACIYGDSIATYYPNWAKGRFTISKTSSTTVTLQMASLTGADTATYFCARDRNGGSGAYGWDLWGPGTLVTISS
VL: ELDLTQTPASVSEPVGGTVTITCQASQSISSYLSWYQQTPGQPPKLLIYKASTLASGVPSRFKGSGSGTEFTLTISDLECADAATYYCQSYYYISATVDNTFGGGTEVEIK
notes: recombinant rabbit IgG
EC50 (recombinant LILRB1 [1]): 0.00794 µg/mL
Kd (recombinant LILRB1 [2]): 1.27 nM
koff (recombinant LILRB1 [2]): 0.000161 s⁻¹
kon (recombinant LILRB1 [2]): 127000 M⁻¹ s⁻¹

B11: humanized B1-176 with heavy chain Hu-176 VH-1 and light chain Hu-176 VL (antibody, V domains shown)
VH: EVQLVESGGGLVQPGGSLRLSCAASGFSFSSSYCMCWVRQAPGKGLEWVSCIYTDSSGATYYASWAKGRFTISRHNSKNTLYLQMNSLRAEDTAVYYCARGWDYEDPGYTDTTYFSLWGRGTLVTVSS
VL: DIQLTQSPSFLSASVGDRVTITCQASQTIYTNLAWYQQKPGKAPKLLIYAASTLASGVPSRFSGSGSGTEFTLTISSLQPEDFATYYCQSYYGSSTTGNGFGGGTKVEIK
binding result [4]: binds

B12: Hu B1-176-LALAPG (antibody, V domains shown)
VH: EVQLVESGGGLVQPGGSLRLSCAASGFSFSSSYCMCWVRQAPGKGLELVSCIYTDSSGATYYASWAKGRFTISRHNSKNTLYLQMNSLRAEDTAVYYCARGWDYEDPGYTDTTYFSLWGRGTLVTVSS
VL: DIQLTQSPSFLSASVGDRVTITCQASQTIYTNLAWYQQKPGKAPKLLIYAASTLASGVPSRFSGSGSGTEFTLTISSLQPEDFATYYCQSYYGSSTTGNGFGGGTKVEIK
notes: Human IgG1 with L234A, L235A and P329G
EC50 (read off the curve) [5]: ~0.04 µg/mL

B13: Hu B1-176-N297A (antibody, V domains shown)
VH: EVQLVESGGGLVQPGGSLRLSCAASGFSFSSSYCMCWVRQAPGKGLELVSCIYTDSSGATYYASWAKGRFTISRHNSKNTLYLQMNSLRAEDTAVYYCARGWDYEDPGYTDTTYFSLWGRGTLVTVSS
VL: DIQLTQSPSFLSASVGDRVTITCQASQTIYTNLAWYQQKPGKAPKLLIYAASTLASGVPSRFSGSGSGTEFTLTISSLQPEDFATYYCQSYYGSSTTGNGFGGGTKVEIK
notes: Human IgG1 with N297A
Kd [3]: 0.351 nM

B14: B1-#178-2 (antibody, V domains shown)
VH: QKQLVESGGGLVQPEGSLALTCTASGFSFSSSYWICWVRQAPGKGLEWIACIYAGSSGSTYYASWVNGRFTVFKTSSTTVTLQMTSLTAADTATYFCARGGTSYRLDLWGPGTLVTVSS
VL: ELVLTQTPSSKSVAVGDTVTINCQASDNVYSNNYTSWFQQKPGQPPKQLLYYAAYRASGVPSRFKGSGSGTEFTLSISDVVCDDAATYYCSGHKDYSDDGSTFGGGTEVEIK
notes: recombinant rabbit IgG
EC50 (recombinant LILRB1 [1]): 0.0143 µg/mL
Kd (recombinant LILRB1 [2]): 1.59 nM
koff (recombinant LILRB1 [2]): 0.000273 s⁻¹
kon (recombinant LILRB1 [2]): 172000 M⁻¹ s⁻¹
